# Experimental data: PMC8129110
# Molecular target: Sla2 ANTH domain (S. cerevisiae), wild type
# Test: DLS
# Conditions: complexes assembled in the presence of PIP2; parent: est. 100; read off a plot
row,response,Substance
1,75 % mass,"Ent1 ENTH domain (S. cerevisiae), wild type (from UniProt Q12518) E107A"
2,100 % mass,"Ent1 ENTH domain (S. cerevisiae), wild type (from UniProt Q12518) E54A; D57A; D60A"
3,37 % mass,"Ent1 ENTH domain (S. cerevisiae), wild type (from UniProt Q12518) Y100R"

# Molecular target: Ent1 ENTH domain (S. cerevisiae), wild type (UniProt Q12518)
# Sequence of UniProt Q12518 (Q12518 whole entry, looked up, the tested form may be a part): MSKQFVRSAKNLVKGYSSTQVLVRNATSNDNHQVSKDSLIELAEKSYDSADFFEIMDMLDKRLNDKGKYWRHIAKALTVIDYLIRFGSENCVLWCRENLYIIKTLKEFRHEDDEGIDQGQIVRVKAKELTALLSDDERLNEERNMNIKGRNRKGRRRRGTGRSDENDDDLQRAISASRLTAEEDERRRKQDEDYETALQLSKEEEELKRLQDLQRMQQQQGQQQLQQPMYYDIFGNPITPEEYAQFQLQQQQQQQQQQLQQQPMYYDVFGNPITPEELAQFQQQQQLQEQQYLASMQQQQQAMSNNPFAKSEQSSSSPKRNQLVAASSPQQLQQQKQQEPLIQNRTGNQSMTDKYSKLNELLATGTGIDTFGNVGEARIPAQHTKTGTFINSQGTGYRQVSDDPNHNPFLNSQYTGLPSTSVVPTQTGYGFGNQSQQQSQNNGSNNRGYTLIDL
# Test: DLS
# Conditions: complexes assembled in the presence of PIP2; parent: est. 100; read off a plot
row,response,Substance
1,100 % mass,"Sla2 ANTH domain (S. cerevisiae), wild type Q9A; K10A"
2,27 % mass,"Sla2 ANTH domain (S. cerevisiae), wild type R29A"
3,100 % mass,"Sla2 ANTH domain (S. cerevisiae), wild type R3A; I4A; D37R"
4,32 % mass,"Sla2 ANTH domain (S. cerevisiae), wild type R25A"
5,21 % mass,"Sla2 ANTH domain (S. cerevisiae), wild type R3A"
6,28 % mass,"Sla2 ANTH domain (S. cerevisiae), wild type K10A; K13A; K14A"
